Earlier results as cited in PMC5837126.

Target: IL-2Rβγc (intermediate-affinity IL-2R) (Homo sapiens) (UniProt P14784)
UniProt P14784, sequence (P14784 27-240, chain 1 of 2): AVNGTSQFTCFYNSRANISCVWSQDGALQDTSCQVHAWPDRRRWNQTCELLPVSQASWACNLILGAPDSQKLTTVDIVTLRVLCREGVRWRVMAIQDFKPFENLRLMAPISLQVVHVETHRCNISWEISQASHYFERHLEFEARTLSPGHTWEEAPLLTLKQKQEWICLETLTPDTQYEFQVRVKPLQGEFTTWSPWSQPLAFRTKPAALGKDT
UniProt P14784, sequence (P31785 23-262, chain 2 of 2, further chain): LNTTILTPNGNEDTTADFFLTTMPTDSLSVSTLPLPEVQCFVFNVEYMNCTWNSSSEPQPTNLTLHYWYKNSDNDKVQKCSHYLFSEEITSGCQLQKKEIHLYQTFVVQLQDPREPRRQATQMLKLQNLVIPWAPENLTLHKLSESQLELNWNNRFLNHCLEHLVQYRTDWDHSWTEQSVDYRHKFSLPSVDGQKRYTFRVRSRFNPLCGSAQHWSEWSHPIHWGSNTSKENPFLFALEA

- Kd: 1 nM
Substance: IL-2 (from UniProt P60568)
